Test [1] addresses T1, IL-6Rα and IL-8R co-expressed on IL-6Rα^+/IL-8R^+ HEK 293T cells (UniProt P08887 20-468; P25025 1-360, limits assumed).
T1 construct: whole, on cells; Not a complex: two separate receptors on the same cell; also called IL-6Rα^+/IL-8R^+ 293T cells
T1 sequence (looked up) 1: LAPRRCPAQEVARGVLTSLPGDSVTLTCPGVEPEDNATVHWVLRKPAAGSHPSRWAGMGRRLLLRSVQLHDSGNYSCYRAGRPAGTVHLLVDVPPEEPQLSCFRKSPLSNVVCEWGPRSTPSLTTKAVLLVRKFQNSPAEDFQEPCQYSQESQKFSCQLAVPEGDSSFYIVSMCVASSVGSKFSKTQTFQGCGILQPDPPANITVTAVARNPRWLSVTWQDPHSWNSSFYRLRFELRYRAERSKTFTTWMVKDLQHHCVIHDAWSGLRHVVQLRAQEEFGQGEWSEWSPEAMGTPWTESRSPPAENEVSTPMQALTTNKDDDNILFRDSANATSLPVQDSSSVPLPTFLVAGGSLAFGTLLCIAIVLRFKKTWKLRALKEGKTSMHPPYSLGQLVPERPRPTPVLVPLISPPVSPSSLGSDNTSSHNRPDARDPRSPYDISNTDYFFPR
T1 sequence (looked up) 2: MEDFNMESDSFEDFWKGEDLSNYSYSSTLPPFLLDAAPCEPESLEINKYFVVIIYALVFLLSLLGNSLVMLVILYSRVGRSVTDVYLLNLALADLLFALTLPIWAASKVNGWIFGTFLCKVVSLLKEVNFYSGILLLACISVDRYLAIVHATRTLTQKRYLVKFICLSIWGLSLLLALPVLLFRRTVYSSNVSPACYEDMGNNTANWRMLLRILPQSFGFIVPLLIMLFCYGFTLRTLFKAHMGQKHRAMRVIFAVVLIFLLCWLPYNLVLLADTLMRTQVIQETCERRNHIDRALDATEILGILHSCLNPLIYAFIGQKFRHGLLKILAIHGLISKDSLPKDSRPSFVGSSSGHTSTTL
Description: flow cytometry titration on IL-6Rα+/IL-8R+ HEK 293T cells (both targets present); IL-6Rα+/IL-8R+ 293T cells, both targets present (FIG. 7C). Here is the method: (§1) HEK 293T cells were cultured in Dulbecco's modified Eagle's medium (DMEM, Mediatech) supplemented with 10% (Hyclone), 2 mM L-glutamine and 100 U/mL penicillin-streptomycin (Gibco). For surface binding assays, IL-6Rα⁺/IL-8R⁻, IL-6Rα⁻/IL-8R⁺, IL-6Rα⁺/IL-8R⁺, and […] HEK 293T cells were trypsinized for detachment, resuspended in PBSA, and then aliquoted into 96-well plates (1×10⁵ cells per well). Cells were incubated with titrations of various monoclonal or bispecific antibodies for 2 hr at 4° C. with rotation. Cells were then washed and incubated with a 1:50 dilution of fluorescein isothiocyanate (FITC)-conjugated anti-human IgG1 antibody (Sigma-Aldrich, Clone 8c/6-39) in PBSA for 15 min at 4° C. After a final wash, cells were resuspended in PBSA and analyzed on a CytoFLEX flow cytometer (Beckman Coulter). Binding isotherms were fitted to a first-order logistic model and KD values were calculated using GraphPad Prism data analysis software. Mean fluorescence intensity (MFI) of unstimulated cells was subtracted. […]
(§2) To determine whether engineered bispecific binding agents BS1 and BS2 specifically engage target antigens in a physiologically relevant context, antibody binding to IL-6Rα⁺/IL-8R⁻, IL-6Rα⁻/IL-8R⁺, IL-6Rα⁺/IL-8R⁺, and IL-6Rα⁻/IL-8R⁻ lentivirally transduced HEK 293T cells was measured via flow cytometry. […]
(Flow cytometry measures light scatter and fluorescence of single cells or particles in a stream.)

Test [2] deals with T2, IL-8RB expressed on lentivirally transduced HEK 293T cells (UniProt P25025 1-360, limits assumed).
T2 construct: whole, on cells; also called IL-8R^+ cells; IL-6Rα^-/IL-8R^+ HEK 293T cells
T2 sequence (looked up): T1 sequence (looked up) 2
Put plainly: flow cytometry binding titration on IL-6R-/IL-8R+ HEK 293T cells, detected with FITC anti-human IgG1. The protocol: as §1, §2

Test [3] concerns the target T3, human IL-6Rα extracellular domain (ECD), residues 89-303 of the mature protein, with C-terminal biotin … (human, UniProt P08887 108-322, biotinylated with BirA ligase on the biotin acceptor peptide).
T3 construct: range 89-303; The range 89-303 counts on the mature protein, not on the precursor; Any linkers between the ECD, BAP and His tag are not described; also called IL-6Rα ECD; recombinant IL-6Rα
T3 sequence: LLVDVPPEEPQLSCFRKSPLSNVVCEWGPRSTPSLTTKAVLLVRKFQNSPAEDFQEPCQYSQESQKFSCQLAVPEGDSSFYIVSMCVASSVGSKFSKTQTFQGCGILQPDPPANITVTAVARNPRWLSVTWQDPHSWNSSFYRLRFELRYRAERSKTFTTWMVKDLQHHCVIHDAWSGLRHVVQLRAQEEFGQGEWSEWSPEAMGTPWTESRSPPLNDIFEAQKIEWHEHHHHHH
Description: BLI equilibrium titration, biotinylated IL-6Rα ECD on streptavidin tips; bivalent IgG, BLI on recombinant IL-6Rα. The protocol:
Biotinylated human IL-6Rα ECD was immobilized to streptavidin-coated tips for analysis on an Octet® Red96 BLI instrument (ForteBio). Less than 5 signal units (nm) of receptor was immobilized to minimize mass transfer effects. Tips were exposed to serial dilutions of the anti-IL-6R antibody tocilizumab, the anti-IL-8R antibody 10H2, BS1, or BS2 in a 96-well plate for 300 s and dissociation was measured for 600 s. Surface regeneration for all interactions was conducted using 15 s exposure to 0.1 M glycine pH 3.0. Experiments were carried out in PBSA (phosphate-buffered saline [PBS] pH 7.3 plus 0.1% bovine serum albumin [BSA, Thermo]) at 25° C. Data was visualized and processed using the Octet® Data Analysis software version 7.1 (ForteBio). Equilibrium titration curve fitting and equilibrium dissociation constant (KD) value determination was implemented in GraphPad Prism software using a first-order logistic model. Experiments were reproduced two times with similar results.
To confirm functionality of our bispecific agents, antibodies were titrated against recombinant IL-6Rα via BLI. […] Moreover, both tocilizumab-containing engineered bispecific binding agents also bound IL-6Rα (FIG. 5).

For test [4], the target named is T4, IL-6Rα expressed on lentivirally transduced HEK 293T cells (UniProt P08887 20-468, limits assumed).
T4 construct: whole, on cells; also called IL-6Rα^+ cells; IL-6Rα^+/IL-8R^- HEK 293T cells
T4 sequence (looked up): T1 sequence (looked up) 1
Description: flow cytometry titration on IL-6Rα+/IL-8R+ HEK 293T cells; IL-6Rα+/IL-8R+ 293T cells (FIG. 7C). The protocol:
as §1, §2

In test [5] the target is T4, IL-6Rα expressed on lentivirally …. Description: flow cytometry binding titration on IL-6R+/IL-8R- HEK 293T cells, detected with FITC anti-human IgG1. Here is the method: as §1, §2

As a reminder, the EC50 (read off the curve) is the concentration at which the effect is half-maximal. A lower EC50 (read off the curve) goes with higher potency in that assay.

B1: BS2 bispecific antibody (scFv-IgG fusion: 10H2 IgG with tocilizumab scFv on the light chains) (bispecific antibody)
heavy: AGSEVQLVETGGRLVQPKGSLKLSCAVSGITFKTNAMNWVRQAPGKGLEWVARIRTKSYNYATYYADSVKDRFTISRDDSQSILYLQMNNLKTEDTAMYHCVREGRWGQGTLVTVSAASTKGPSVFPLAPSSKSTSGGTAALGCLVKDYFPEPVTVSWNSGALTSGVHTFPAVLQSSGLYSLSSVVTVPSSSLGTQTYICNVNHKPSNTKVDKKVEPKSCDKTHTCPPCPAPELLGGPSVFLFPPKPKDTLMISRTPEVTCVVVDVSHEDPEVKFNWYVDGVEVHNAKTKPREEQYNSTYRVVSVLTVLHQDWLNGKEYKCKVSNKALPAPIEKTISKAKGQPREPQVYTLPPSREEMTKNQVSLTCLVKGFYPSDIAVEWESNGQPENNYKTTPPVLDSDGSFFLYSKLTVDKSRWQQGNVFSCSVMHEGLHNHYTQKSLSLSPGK
light: AGSQAVVTQESALTTSPGETVTLTCRSSTGAVTTSNYANWVQEKPDHLFTGLIGGTNNRPPGVPARFSGSLIGDKAALTITGAQIEDEAIYFCALWYSNHLVFGGGTKLTVLRTVAAPSVFIFPPSDEQLKSGTASVVCLLNNFYPREAKVQWKVDNALQSGNSQESVTEQDSKDSTYSLSSTLTLSKADYEKHKVYACEVTHQGLSSPVTKSFNRGECGGGGSGGGGSEVQLQESGPGLVRPSQTLSLTCTVSGYSITSDHAWSWVRQPPGRGLEWIGYISYSGITTYNPSLKSRVTMLRDTSKNQFSLRLSSVTAADTAVYYCARSLARTTAMDYWGQGSLVTVSSGGGGSGGGGSGGGGSDIQMTQSPSSLSASVGDRVTITCRASQDISSYLNWYQQKPGKAPKLLIYYTSRLHSGVPSRFSGSGSGTDFTFTISSLQPEDIATYYCQQGNTLPYTFGQGTKVEIK
notes: Human IgG1-based
B1: the Kd in test [1] stood at 3.4 nM.

B2: tocilizumab, recombinant monoclonal hIgG1 (anti-IL-6Rα) (antibody, V domains shown)
VH: EVQLQESGPGLVRPSQTLSLTCTVSGYSITSDHAWSWVRQPPGRGLEWIGYISYSGITTYNPSLKSRVTMLRDTSKNQFSLRLSSVTAADTAVYYCARSLARTTAMDYWGQGSLVTVSS
VL: DIQMTQSPSSLSASVGDRVTITCRASQDISSYLNWYQQKPGKAPKLLIYYTSRLHSGVPSRFSGSGSGTDFTFTISSLQPEDIATYYCQQGNTLPYTFGQGTKVEIK
notes: also called anti-IL-6Rα antibody
Regarding B2, the binding result in test [2] is listed as “no binding (tested: 1e-6 M)”. Besides, the Kd was 28 nM in test [3] and 3.1 nM in test [4]. In addition, the “EC50 (read off the curve)” value in test [5] is approximately 3 nM.

These data come from patent US20220251222A1 (Johns Hopkins, published 2022).
